In US9206239B2, “Treatment of cancers with immunostimulatory HIV Tat derivative polypeptides” (PIN Pharma, Inc., priority 2009, dated 2015):
Entries after “also recorded” stand apart in the source; their conditions may differ.

Columns and labels:
4T1 cells = experiment: Repeated dosing of Nani-P2 alternating with cyclophosphamide in 4T1 tumor-bearing mice; format: in vivo, BALB/c mice; settings: by day 42; 80 mg/kg IP weekly from day 10
Experimental: Four groups of 10 BALB/c mice were implanted with 1×10^4 4T1 cells SC into the mammary fat pad. Treatment was initiated when tumor diameters reached 4-5 mm, on day 10. Control mice were injected IV with PBS at 3 days intervals, while alternating treatment mice received 3 doses of drug every 3 days in rotating 10 day cycles. Tumor burden (tumor size mm^3) was calculated using a standard formula. CY: (cyclophosphamide alone) mice were injected IP weekly with 80 mg/kg per mouse beginning on day 10. Cy/Nani-P2: (cyclophosphamide first followed by Nani-P2) mice were first injected IP with cyclophosphamide (80 mg/kg) at 3 days intervals for three doses starting at day 10 and then injected IV with Nani-P2 (40 ng) at 3 days intervals for three doses in rotation. The cycle of 3 doses of CY followed by 3 doses of Nani-P2 was repeated until day 50. Nani-P2/CY: (Nani-P2 first followed by cyclophosphamide): mice were first injected IV with Nani-P2 (40 ng) at 3 day intervals for 3 doses starting on day 10 and then injected i.p. with cyclophosphamide at 3 day intervals in rotation. The cycle of 3 doses of Nani-P2 followed by 3 doses of CY was repeated until day 50.

4T1 breast tumor cells = experiment: 4T1 breast tumor growth in BALB/c mice; format: in vivo
Source text: Female BALB/c mice 6 to 8 weeks old were purchased from the Jackson Laboratory (Bar Harbor, […].). Mice were acclimated for at least 1 week before use. Mice were kept in pathogen-free conditions at the Animal Maintenance Facility of the Columbia University of Medical Center and all experiments were approved by the Institutional Animal Care and Use Committee of Columbia University of Medical Center.
4T1 cells, a 6-thioguanine-resistant cell line derived from a BALB/c spontaneous mammary carcinoma was obtained from ATCC; TS/A, a murine adenocarcinoma cell line was provided by Dr. Sandra Demaria (Demaria S. et al. Clin Cancer Res. 11:728-34, 2005); and SM1, the BALB/C-derived mammary carcinoma was kindly was provided by Dr. James Allison, University of California, Berkeley. All tumor cell lines were cultured in DMEM, supplemented with 2 mM L-glutamine, 10 mM HEPES, 150 units/ml penicillin/streptomycin, 10% heat-inactivated FCS (Invitrogen), 50 μM 2-mercaptoethanol (Sigma), and 50 mg/L gentamicin (Lanza).
BALB/c were injected (SC) with 1×10^4 4T1, 1×10^5 TS/A or 2×10^5 SM1 cells, respectively, in the left mammary pad on day 0. Immunotherapy was performed by directly injecting a Tat derivative into the right flank at 0, 7, 12, and 17 days after establishment of tumors. The control group received PBS injection. […] Tumor burden (tumor volume) was measured and recorded three times weekly. Animals were sacrificed when tumors reached a volume of 15 mm in diameter and the tumors harvested and weighed.
The therapeutic effect of systemic administration of synthetic, Tat-derived compositions in murine models of breast cancer was investigated. To compare the relative protection conferred by a small panel of different derivatives against primary breast tumor growth, female BALB/c mice were injected with 1×10^4 4T1 breast tumor cells SC into the mammary pad, and then treated with 400 ng partially-purified Tat derivatives at day 0, 7, 14 and 21 (SC injection in PBS) into the draining axillary lymph nodes.

O=P1(N(CCCl)CCCl)NCCCO1 (stereo not drawn) [cyclophosphamide, reference compound]
treated mice dead (4T1 cells): 10/10

B1: Nani-P3: HIV Tat derivative polypeptide, SEQ ID NO: 4; serine-rich TARA homology sequence replaces the SH3 binding sequence (protein)
chain: METPLKEQENSLESCREHSSSISEVDVPTPVSCLRKGGRCWNRCIGNTRQIGSCGVPFLKCCKRKPFTRKGLGISYGRKKRRQRRRAPQDSQTHQASLSKQPASQSRGDPTGPTESKKKVERETETDPFD
modifications: Nani-P3 modified HIV Tat sequence
4T1 primary tumor growth vs controls (4T1 breast tumor cells; 400 ng or 2 μg SC days 0, 7, 14, 21): less effective at suppressing 4T1 primary tumor growth; also recorded: no difference

B2: Nani-P1: HIV Tat derivative polypeptide, SEQ ID NO: 2; internal prolines of the SH3-binding site each substituted as alanine (protein)
chain: MEPVDANLEAWKHAGSQPRKTACTTCYCKKCCFHCQVCFTRKGLGISYGRKKRRQRRRAPQDSQTHQASLSKQPASQSRGDPTGPTESKKKVERETETDPFD
modifications: Nani-P1 modified HIV Tat sequence
tumor burden compared to control mice receiving PBS (4T1 breast tumor cells; 400 ng partially-purified derivative SC day 0, 7, 14, 21, apparent from day 15 (p<0.05)): significantly reduced tumor burden
